These results are taken from patent publication US20260152552A1 (CURON BIOPHARMACEUTICAL SHANGHAI, published 2026).

Positions count from the first letter of the chain named.

B1: anti-L1CAM human-mouse chimeric antibody ch49E10H1 (antibody, V domains shown)
VH: DVQLQESGPGLVKPSQSLSLTCTVTGYSITSDYAWNWIRQFPGNRLEWMGYITYSGTTTYNPSLKSRISITRDTSKNQFFLQLNSVTTADTATYYCTLDHYGNYAYFDYWGQGTTLTVSS
VL: QIVLSQSPAILSASPGEKVTMTCRASSSVSFMHWYQQKPRSSPKPWIYASSNLVSGVPTRFSGSGSGTSYSLTISRVEAEDAATYYCQQWSSNPSTFGAGTKLELK
notes: VH and VL of mouse 49E10H1 with human IgG1 constant regions; The entries as printed seem to begin with a leader peptide
B2: anti-L1CAM human-mouse chimeric antibody ch25F8H8 (antibody, V domains shown)
VH: QVQLQQSGAELAKPGASVKMSCQASGYTFTTYWMHWVKQRPGQGLEWIGYINPSTGYTDYNQKFKDKATLTADKSSSTAYMQLSSLTSEDSAVYYCARRQLGLPLFDYWGQGTTLTVSS
VL: DIVMTQSHKFLSTSVGDRVSITCKASQDVGTAVAWYQHKPGQSPKLLIFWASTRHTGVPDRFTGSGSGTDFTLTISNVQSEDLADYFCQQYSNYPLTFGAGPKLELK
notes: VH and VL of mouse 25F8H8 with human IgG1 constant regions (CH1, CH2, CH3)
B3: anti-L1CAM human-mouse chimeric antibody ch46F1D5 (antibody, V domains shown)
VH: B2 VH with L4V, V18M, Q23K, T31R, H35Q, K63N, Q100H
VL: B2 VL with L11M, V15L, H38Q, F49Y, D85E, P102T, E105D
notes: VH and VL of mouse 46F1D5 with human IgG1 constant regions; The entries as printed seem to begin with a leader peptide
B4: anti-L1CAM human-mouse chimeric antibody ch26A12C1 (antibody, V domains shown)
VH: B2 VH with Q23K, T31N, H35Q, G56Y, T58S, Y80F, L101F, V117L
VL: B2 VL with L11M, H38Q, F49Y, A84T, P102T, K103E
notes: VH and VL of mouse 26A12C1 with human IgG1 constant regions; The entries as printed seem to begin with a leader peptide
B5: anti-L1CAM human-mouse chimeric antibody ch103E9B3 (antibody, V domains shown)
VH: EVQLQQSGPELLKPGASVKISCKASGYTFTSYTMHWVKQSHGKSLEWIGDINPNYGGTSYNEKFKDKATLTVDKSSSTAYMELRSLTSEDSAVYYCAREGATGTWYFDVWGTGTTVTVSS
VL: QIVLTQSPALMSASPGEKVTMTCSASSSVSFMFWYQQKPRSSPKPWIYLTSNLASGVPARFSGSGSGTSYSLTISSMEAEDAATYYCQQWRSNPPTFGAGTKLELK
notes: VH and VL of mouse 103E9B3 with human IgG1 constant regions; The entries as printed seem to begin with a leader peptide
B6: mouse anti-L1CAM monoclonal antibody 49E10H1 (antibody, V domains shown)
VH: B1 VH
VL: B1 VL
notes: Mouse IgG tested as hybridoma supernatant
B7: mouse anti-L1CAM monoclonal antibody 25F8H8 (antibody, V domains shown)
VH: B2 VH
VL: B2 VL
notes: as for B6
B8: mouse anti-L1CAM monoclonal antibody 46F1D5 (antibody, V domains shown)
VH: B2 VH with L4V, V18M, Q23K, T31R, H35Q, K63N, Q100H
VL: B2 VL with L11M, V15L, H38Q, F49Y, D85E, P102T, E105D
notes: as for B6
B9: mouse anti-L1CAM monoclonal antibody 26A12C1 (antibody, V domains shown)
VH: B2 VH with Q23K, T31N, H35Q, G56Y, T58S, Y80F, L101F, V117L
VL: B2 VL with L11M, H38Q, F49Y, A84T, P102T, K103E
notes: as for B6
B10: mouse anti-L1CAM monoclonal antibody 103E9B3 (antibody, V domains shown)
VH: B5 VH
VL: B5 VL
notes: as for B6

One assay deals with T1, human L1CAM (L1 cell adhesion molecule), endogenously expressed on the surface of HeLa cells (human, UniProt P32004 20-1257).
T1 construct: whole, on cells; also called CD171
T1 sequence (P32004 20-1257): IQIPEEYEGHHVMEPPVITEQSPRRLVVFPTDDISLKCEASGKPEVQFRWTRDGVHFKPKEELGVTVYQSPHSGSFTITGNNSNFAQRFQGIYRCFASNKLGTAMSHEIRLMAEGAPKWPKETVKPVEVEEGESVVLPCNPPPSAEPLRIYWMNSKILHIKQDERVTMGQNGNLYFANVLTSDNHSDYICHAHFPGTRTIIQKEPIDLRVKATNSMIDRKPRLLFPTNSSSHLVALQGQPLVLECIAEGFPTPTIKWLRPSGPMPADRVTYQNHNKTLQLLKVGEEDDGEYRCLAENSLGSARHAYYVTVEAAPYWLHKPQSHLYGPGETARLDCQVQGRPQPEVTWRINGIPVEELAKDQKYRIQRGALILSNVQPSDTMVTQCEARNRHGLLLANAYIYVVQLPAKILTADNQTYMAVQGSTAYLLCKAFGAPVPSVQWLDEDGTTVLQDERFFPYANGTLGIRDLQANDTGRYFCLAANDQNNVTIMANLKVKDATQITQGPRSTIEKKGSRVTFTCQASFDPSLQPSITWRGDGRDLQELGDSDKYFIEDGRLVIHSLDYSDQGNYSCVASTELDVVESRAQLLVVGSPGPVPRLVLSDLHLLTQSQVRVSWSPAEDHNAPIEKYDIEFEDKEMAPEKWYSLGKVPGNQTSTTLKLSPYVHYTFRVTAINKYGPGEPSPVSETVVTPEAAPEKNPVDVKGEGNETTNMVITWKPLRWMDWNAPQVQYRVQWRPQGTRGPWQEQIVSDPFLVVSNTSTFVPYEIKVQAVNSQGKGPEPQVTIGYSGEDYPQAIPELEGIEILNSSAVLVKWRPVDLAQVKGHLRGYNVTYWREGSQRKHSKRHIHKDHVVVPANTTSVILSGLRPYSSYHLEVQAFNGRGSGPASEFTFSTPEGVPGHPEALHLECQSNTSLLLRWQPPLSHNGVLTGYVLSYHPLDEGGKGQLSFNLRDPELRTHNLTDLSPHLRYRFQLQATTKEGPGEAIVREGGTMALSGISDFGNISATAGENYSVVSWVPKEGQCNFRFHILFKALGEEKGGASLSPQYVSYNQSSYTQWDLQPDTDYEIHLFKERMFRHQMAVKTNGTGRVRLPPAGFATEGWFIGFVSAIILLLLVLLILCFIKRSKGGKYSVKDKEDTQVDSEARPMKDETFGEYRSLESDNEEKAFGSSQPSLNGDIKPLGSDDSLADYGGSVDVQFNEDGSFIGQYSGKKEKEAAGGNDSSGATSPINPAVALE
Kind of assay: flow cytometry on HeLa cells (endogenous human L1CAM). The method, then:
This example utilizes HeLa cells and L1CAM-knockout HeLa cells (purchased from Abcam) to determine the binding of mouse anti-L1CAM monoclonal antibodies to endogenously expressed human L1CAM on the cell surface. L1CAM-knockout HeLa cells are referred to as HeLa KO cells in this invention. HeLa cells are cultured in DMEM complete medium (purchased from Corning) containing 10% FBS (purchased from Gibco) and 100 U/mL penicillin mixture (Thermofisher, 15140122). […] Then, the human-mouse chimeric antibodies are serially diluted in DMEM complete medium, with 25 μL of the diluted chimeric antibody solution added to each well, gently mixed, and incubated at 4° C. for 1 hour. Then, 150 μL of PBS buffer containing 2% FBS (purchased from Corning) is added to each well, centrifuged at 1400 rpm for 4 minutes, the supernatant is removed, and the wells are washed once more. Then, 50 μL of Alexa Flour 647-labeled goat anti-human fluorescent secondary antibody (purchased from Jacksonimmuno) diluted 1:800 is added to each well, and the 96-well plate is incubated at 4° C. for 0.5 hours. The cells are washed twice with PBS solution containing 2% FBS, then resuspended in 120 μL of PBS, and the cell surface fluorescence signal is detected using a flow cytometer (BD FACSCelesta), obtaining the median fluorescence intensity (MFI). A dose-response curve is generated, and the half-maximal effective concentration (EC50) is calculated using non-linear regression with GraphPad software.
On the technique in general: In flow cytometry, cells or beads pass a laser one at a time.
Regarding B1, the midpoint of the response, the EC50, lay at 0.978 nM and the “Maxium MFI” value is 42900 MFI.

Take B2: the EC50 came to 0.833 nM and the “Maxium MFI” value worked out at 29300 MFI. As for B3, the EC50 amounted to 0.845 nM and the “Maxium MFI” value came out at 43100 MFI. For B4, in that order: 0.739 nM and 44700 MFI. In the case of B5, the EC50 is 1.11 nM and the “Maxium MFI” value stood at 45400 MFI.

The target in a further assay is T1, human L1CAM (L1 cell adhesion …). The assay is described as above. The source holds these as a separate data set. The procedure:
The experimental principle is as follows: HeLa cells express high levels of L1CAM protein on their surface. After incubating humanized L1CAM antibodies with the cells, the binding ability of the antibodies to L1CAM on the surface of HeLa cells can be determined by flow cytometry. The experimental method is descripted as following: Humanized L1CAM antibodies (Human IgG1-Kappa) are diluted in complete medium in a four-fold serial dilution, with seven concentration gradient points. HeLa cells are cultured in DMEM complete medium (Corning, 10-013-CVR) containing 10% FBS (Gibco, 10099-141) and 100 U/mL penicillin mixture (Thermofisher, 15140122). When the cell coverage in the culture container reaches 80-90%, TrypLE (Thermofisher, 12604-013) is used to digest the HeLa cells from the culture container, and they are seeded in a 96-well plate (AXYGEN, P-96-450V-C) at a density of 2.2×10⁶ cells/ml, with 100,000 cells (45 μL complete medium) per well. Then, 5 μL of the antibody dilution is added to each well, gently mixed, and the 96-well plate is incubated at 4° C. for 1 hour. Then, 150 μL of PBS solution containing 2% FBS (Corning, 21-040-CVC) is added to each well, centrifuged at 1400 rpm for 4 minutes, the supernatant is removed, and the wells are washed once more. Then, 50 μL of Alexa Flour 647-labeled goat anti-human fluorescent secondary antibody (Jacksonimmuno, 109-605-088) diluted 1:800 is added to each well, and the 96-well plate is incubated at 4° C. for 0.5 hours. The cells are washed twice with PBS solution containing 2% FBS, then resuspended in 120 μL of PBS, and the cell surface fluorescence signal is detected using a flow cytometer (BD FACS Celesta), obtaining the median fluorescence intensity (MFI). A dose-response curve is generated, and the half-maximal effective concentration (EC50) is calculated using non-linear regression with GraphPad software.
For the molecule B5, the EC50 was determined as 1.21 nM.

For the next assay the target is unchanged. As to the kind of experiment: flow cytometry on HeLa cells (endogenous human L1CAM), hybridoma supernatant. The procedure:
HeLa cells used in this example were used to measure the binding of mouse anti-L1CAM monoclonal antibodies to endogenously expressed human L1CAM on the cell surface. HeLa cells were cultured in DMEM complete medium (purchased from Corning) containing 10% FBS (purchased from Gibco) and 100 U/mL penicillin-streptomycin mixture (Thermofisher, 15140122). When the coverage of the cells in the culture container reached to 80-90%, using TrypLE (purchased from Thermofisher) to digest Hela cells from the culture container, and seed them in a 96-well plate (purchased from AXYGEN) at a density of 4×10⁶ cells/ml, with 100,000 cells per well (25 μL DMEM complete culture medium), then add 25 μL of diluted hybridoma supernatant containing antibodies to each well, mix gently, and incubate the 96-well plate at 4° C. for 1 hour. Then add 150 μL of PBS buffer containing 2% FBS (purchased from Corning) to each well, centrifuge at 1400 rpm for 4 minutes, remove the supernatant, and repeat washing once. Then, 50 μL of 1:800 diluted Alexa Flour 647-labeled goat anti-mouse fluorescent secondary antibody (purchased from Jacksonimmuno) was added to each well, and the 96-well plate was incubated at 4° C. for 0.5 hours. The cells were washed twice with PBS solution containing 2% FBS, and then resuspended in 120 μL of PBS. The fluorescence signal on the cell surface was detected using a flow cytometer (BD FACSCelesta) to obtain the median fluorescence intensity (MFI). The antibody-containing hybridoma supernatant was assayed using an anti-mouse ELISA assay to determine the concentration of mouse IgG in the supernatant. Finally, a dose-response curve was generated, and the half effective concentration (EC50) was calculated by nonlinear regression using GraphPad software.
In the case of B6, the midpoint of the response, the EC50, lay at 0.233 nM.

For B7, the EC50 was found to be 0.193 nM.

Molecule B8 showed a 50% effective concentration (EC50) of 0.144 nM. Same read-out and setting: to B9 belongs 0.241 nM.

Turning to B10, the EC50 turned out to be 0.436 nM.

As a reminder, the EC50 is the concentration needed to bring the measured effect to its halfway point. Low values mean a more potent agent, high ones a less potent agent.
